Source: publication PMC4021073, “Breast tumor specific mutation in GATA3 affects physiological mechanisms regulating transcription factor turnover”

Molecular target: GATA3 DBD wild-type (UniProt P23771-2 261-371)
Assay: EMSA; 0.5-4 uM protein, 30 uM DNA; 28 mM Tris-HCl pH 7.5, 120 mM NaCl, 1 mM DTT, 0.8 mM 2-mercaptoethanol, 4% glycerol, 0.4 uM zinc sulfate; 10 min at 37 C; 10 ul
Conditions: protein: recombinant; (pET-15b hexahistidine fusion); label: none (ethidium bromide stain); blunt (20 bp; one strand printed)

Sequence of GATA3 DBD wild-type (P23771 260-370): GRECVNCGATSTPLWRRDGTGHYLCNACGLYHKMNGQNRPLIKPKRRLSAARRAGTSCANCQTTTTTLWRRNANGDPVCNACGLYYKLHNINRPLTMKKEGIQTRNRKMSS

B1: GATA+ 20 bp (dsDNA)
DNA 1: AATGTCCATCTGATAAGACG
DNA 2: CGTCTTATCAGATGGACATT
binding result: binds
